This is an account of results in the domain aggregation screens of Martell et al. (2025).

This data set can be described thus: soluble fraction after stress (log2 fold change); higher = more stays soluble; pooled small domains, quantitative proteomics. As to conditions: stress: pH 4. Put shortly:
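Custom libraries of small protein domains were pooled and exposed to pH 4. High-throughput quantitative proteomics then measured the log2 fold change in the amount of each domain still soluble, with higher values meaning more stayed soluble. This soluble-fraction fold change stands for aggregation propensity.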
As for “HMEHLTATERHLVAYLEAHLGQVPSLSITKLSQEANVSTASIVRTMKKLGYDGFTAFKHAIKQQLR”, the “soluble fraction (log2)” value came to 0.156. In the case of “HMEHTPHGVALLRTLMDQYGLKAADLANELGSKSNVSNILNGRRALTVSHIKMLAERFNLPADAFI”, the “soluble fraction (log2)” value was -0.137.

As for “HMEIALNDKQILLFSNKLVHEPSFASKYSKVGESYDDFAIRISENLTIPDKVQEYLPYLEKVGFNI”, the “soluble fraction (log2)” value was -0.191.

For the sequence “HMEIDDPWLILGINAGSSIEIAQKAWKDLASQNHPDKLIANGVPKELLGMANEKLAIINGAYDKILKAHKI”, the “soluble fraction (log2)” value is -0.792. Then “HMEIETPEIRAIHDLLELLANKAKKPEQEQFVQAHPEVQWAKVEANKNGTFAVGKVKAYLKTLQA”, with -0.568; and “HMEIGNVIAKLRVSNGLNQREFAKKLEVSNGAVAMWETNKRQPDLEMIKKISNLFDVPTDYILGAGTFQ”, with 0.152; and “HMEIIFVEHKVRPGESVWLIARKYKVKKNHILAVNNLSEKSIIRPKQILKIPTSGYDQYKKSVE”, with -0.495. On to “HMEIIMIVITKPSITDERIAEIVAVIERNGGVQAHVSKGTDRTVIGIIGKAEPTLAEHLRQMKGVENVIKI”, for which the “soluble fraction (log2)” value was -0.327. Under “HMEIPMRDKLKTYIDYLFAGAPQTAATAETKAEILQNTLDKYDDLIAEGKTPEAAYSLAVSGIGDLGDF” stands -0.339; under “HMEIPTEEILKQKLYYSISEVASWFKVNTSLLRYWENEFDILQPRKTRKGDRLFRVEDIKNLQLIYLL”, -0.122. As for “HMEITGKYKAKEDIKLKVIPLISSLDLQDIKQNTELEVKDTMNNWAYVTVQEKQGWVVLEKIEKVE”, the “soluble fraction (log2)” value is -1.07.

As to “HMEITTLTGVLGAGRLDSALAAALPQYSRARIQALISDAALRINGQVVADAGSKKMSGQTFELNIPAPVP”, the “soluble fraction (log2)” value was 0.0449. Then “HMEKDEYIFVDIDGAVFNPGVYKLIAGSRVIDAINLAGGLKEKAFTQNLNKARKLVDGEKIYIYLEGDEE”, with -1.23. Then “HMEKDRDKRIRKRVLTALKRNDKKMTDKAFALLTSRIRDESILDQEVLKLIGYVGDRTTIDSKDINIVVAE”, with 0.0457; and “HMEKEEELNSIRPDLDGNDIMEILGVPAGPKVGKAYNYLLNVRLDEGPLSRAEAISRLEAWWENQ”, with -1.22; and “HMEKELVSDFASRISTARSSKGWNHAELGKRMAETVNVIKSAESGKPPTDSVVKKLERVLGITLMEV”, with -0.218. Under “HMEKEYMKNVVGMEYRQARVLLGDMGLELAFQPVYETSDKYPTDVVVSTEPAADQPLTKGQTVILHIST” stands 0.299; under “HMEKGNEEALEQAREAILAVQSGEKYVDLDPANAAIRRKQHALAQASDLVSQSYGKDPNRYVRIFR”, 0.367. Take “HMEKINLLVENNDNYRLDKIIALNMEELSRTQIQEMIGQGLVLVNGKVEKASYKTKLNDQIEITIED”: the “soluble fraction (log2)” value was -0.409.

For the sequence “HMEKKKVPEVAGQDEAAARNVMTNSGFVVDVEQKEDDNVPAGKVITTAPAGGVEVVEGTKIILYVSKGSN”, the “soluble fraction (log2)” value is 0.0237.

As to “HMEKKPYGEMHNVMLTDEELEKLRHDYPAHFAEYIQRLSLHIDAKGARYKSHYAVIRKWLIADGVKA”, the “soluble fraction (log2)” value was 0.0221. On to “HMEKLIRIKRLIKQLNEYRDSYYNEARPVVSDAAYDKLFDELSELEKETGVVYANSPTQTVG”, for which the “soluble fraction (log2)” value was -0.457. Then “HMEKPTEITLSNRVSVQELAEKMYVSETDIIRTLFLDGRIININQVLDIDTAIRVGEQLGIKIKII”, with -1.49; and “HMEKPTRNKLVEIIIQNKNVTTEQMANLLNISRRAVAKHIKKLQEEGIIRRIGPDFGGHWEIVK”, with 0.225; and “HMEKPYTPPANLNEIQSYEELSKAVQYYNKVKDAATTDADRLKAQQSIDTLEDMRKAWDAASST”, with -0.312. Under “HMEKSLSAQVYEKIKAGIISLKYPPGSVLKERELSESLGVSRTPVREAIQRLSQESWLVPGEGKRMQVRP” stands ≥ 0.43. For the sequence “HMEKTLAERVNDILAEIKMTKQELAMQLNISRSAVSQYLNGKYSSNPEAIEARLRDFVSSYDRG”, the “soluble fraction (log2)” value is -0.243. Under “HMEKYIVEAEEQGKRLDMYISSKDEELTRTSAQRLIEQGDILVNNKKVKVAYKVSEGDIIAVEKQ” stands 0.00594. Under “HMELDLPLEELGLSTRVLHSLKEEGIESVRALLALNLKDLKNIPGIGERSLEEIKEALEKKGFTLK” stands -0.423; under “HMELEENTERVLNILIENDIISENDIAEKLEVKINGARKALYKLKEVGFVEYTKERDEEKKWWYIYFWKLN”, -0.36.

For “HMELEKIRPDLDGLEIMAILGISPSPIVGRAYQYLLDLRMDRGPLGPDAAKAELLNWWSLNQPK”, the “soluble fraction (log2)” value is -1.62. For “HMELGRQDSAQLGRWAAGILAKNGKKITGRTMEFFLSRTGDDMENISSELEKLISYTLGREVITEEDIEAV”, the “soluble fraction (log2)” value was -0.757.

Turning to “HMELGWYVRLRRRELGLSVTALAEKAGMSQSYLSQIETGDRGNPSPESLRSLAEALEVSPRELESLV”, the “soluble fraction (log2)” value was determined as 0.286. Then “HMELMKPPGYWQSLENAIYESKKVIKEHGFDTLPSSNKLRELDYHGLSRAISVHHSGFPNFREIMNQELGI”, with -0.0528; and “HMELNDEELIKGIQELLTKIGYDPGEINGVLGIKTSSAISAFQQSRNKAITGEADLDLLVQLQIELRKITT”, with -1.32; and “HMELNGVSETAKSVYSIILNNSSTVDDIVIKTKLPAAKVMQALTELELNDAVERKSGGVYALP”, with -0.0324. Then “HMELPADLATVLSVDDIRAIALAEVPGSTITGVELEREEGVLVYKVKFNDGSYKLYDANTGELV”, with -0.238; and “HMELPPLEPIDRILVVQQPINIREQPGVLAKKIGRVSSGETLTILAKVSGQDWYFVETDNGGRGYVFKRV”, with -0.222; and “HMELQYSQEIEEAQKILENLGLYRGEIDGINGINTKSAIREFQRKSGLVVDGILGPNTTNALSKGSDAYIT”, with 0.0515. For “HMELVQIIGNNIRDLMTTRSVTITDLANYLNVSRQTLQNYLRGSNIIDSVKLVAVSDFFDVPVESLLQSK”, the “soluble fraction (log2)” value was -0.783. Then “HMEMGNKIKELRTKLGITQEELSKTLNVSSQAVSKWENGGLPDLELIPEIAKYFNVTTDYLFDIK”, with -0.723; and “HMEMKVIPFNQMTRDQFDQLDRFLGRLAAAQAMGSLRLTKAQQNYFLNQVKQLDLYRKRILN”, with 0.0144. Consider “HMEMTSREIIKRLEEDGWYHVKTTGDHYQMKHPTKPGKVTIVHPAKDLSIGTLRSIEKQSGVRL”, for which the “soluble fraction (log2)” value is ≥ 0.43. Under “HMEMVSMPGLTGSTLEFATKTLTENELKYEVVYIVDASAESGLIIRTYPTEGEMVSKKTSTIYLYIKE” stands -0.481; under “HMENDGQFLRAEREKYGLTLTDIYEHTHIPIKKLKAYEMWEEEMPPRTRALLELYFDQVAFEYDS”, -0.556. Take “HMENDPYEILGIARSASDDEIKAKYRALTRENHPDILMAKGVPQEFIDLANEKMAVINAAYDKIEKER”: the “soluble fraction (log2)” value turned out to be 0.12. Under “HMENEDMTGDIRVIDYIRNVAEYIQTTKGQASASQMLDRFLFPPELQYTPLDKLSGGEQRRLYLLKVLMEA” stands -0.575; under “HMENEFEAYSDGSSIQLNDPSKATYVVFDRQGRLLHLFQNHSLSSLSIERKNQILIITRETADGVSVKKIV”, -0.167.

Turning to “HMENEIPVPELVGMSEADAAAKLASLGLERDTQREATADEESVGKVLRQEPTPGEYVDEGHKVTIWVGE”, the “soluble fraction (log2)” value is 0.22. With “HMENFSTLFSRLKEERGLSNKQISSFTGAPIKEVKKWESGMGIPTEKRIVAALEGILGSEISKAI”, the “soluble fraction (log2)” value turned out to be 0.353. Then “HMENHILIIDDDLMLLKTAEEILSDQYNVSVAKSGIQALNLLNKNIIPDLILLDIDMPQMDGYETL”, with -0.554; and “HMENIIFDIGFHKGEDTLFYLLKGYRVIAVDADPDLINEWQNIFKKYIENGKLLLLNYVISDT”, with -1.18. For the sequence “HMENISVESKMKLLLKSLKTRDFISLPELVLKGESKLAISVILVAALELNRKGYIEVVQAEQFGEIYFKNT”, the “soluble fraction (log2)” value worked out at 0.0399.

For the sequence “HMENKVLVITEEEKGKRLDVYLAAALEVSRSYAQQLIQGEDVVVNDKQVKANYRLSEGDVVQVQLD”, the “soluble fraction (log2)” value was -0.218. Under “HMENLIEELTAKNKEYIHSVTKQLILVGKSDEEVKEILNDILPQIIEGQKSGIIARKLLGAPTEFVSQYQP” stands -0.317. With “HMENLQLQQLVKGLPEKMQEIVILRFSQELTMREIADIVNLPMRTVQSQLRLALKILKKEMG”, the “soluble fraction (log2)” value came to 0.145. For the sequence “HMENLSFNINSEEEGQRIDKYLSVMIEGKSRSFVQGLIEEKKVKANSKVIKSNYKLKKGDFIEVEVPEPV”, the “soluble fraction (log2)” value was determined as 0.36.

Consider “HMENLSGNDIKYLRKKYNLTQKELADALGLQKFGDRTIRRWEAEETHPSKLEQSSIQSFFNSLK”, for which the “soluble fraction (log2)” value stood at 0.111.

As for “HMENLTLVIGNKLKNIRNSRNLSLDDVAELTGVSKAMLGQIERGKSNPTVSTLWKISTGLRVSFSSFIDE”, the “soluble fraction (log2)” value was -0.249. Then “HMENLVPVVVATTNIEPRTQITDAMVKVEQIPALGRNESMLEDPALVVGGYATGKIYAGQSFIQPMVSK”, with 0.192; and “HMENNIILNYVKDNLNITEKDAKDLIELLGSDYYHIKNETNKIAAFLDGQPYSFEKIKNLISIDKEY”, with -0.644; and “HMENPLETYYSQWVSAIKREHPEASFVKDTDGKYYVEGLTKNRLAVIYENPHLVRLVNATTNLHVE”, with 0.14. Under “HMENPVPVIITDQNFQPLLWKNVGVPTDTIFHELSPENQKKLENLMKTMVQMPLTDDGRISGYAYYSK” stands 0.149; under “HMENQFNDWSLTPSEKEVALFMLKGLSTQEIAAARNTKEKTVRQQASAVYAKSQLDGRYALAAWFFEDI”, -1.04. Then “HMENQMIIYIDENDENKRLDSYLSEITPDYSRSKIQNFIKNGNVTVNDSNKKPSYLLKENDKISFELPQQ”, with -0.158. Turning to “HMENSLLSESLAKIYIKTHRYERAYEILSRLSLAVPEKNAYFADQLRFLRKVMLAESFRKQHS”, the “soluble fraction (log2)” value came to 0.22.

With “HMENTSPMTPEQSKALMAYLTKRHGDSREAYLSELSQFFGRPLSSSRELTKADVSEFLNAIN”, the “soluble fraction (log2)” value is -0.0703. Under “HMENVVESIYNKMVESITNGQWAAGSKIPTENELAKTYQVSRSSVRQAISRLKALGLLESRQGSGTVIKK” stands 0.178; under “HMENWMPNLVNQDKRLAINTLRELGFTEEAGNLVIREETSEDVTKDYVISTDPVAETDLADVEKVTLVVSS”, -0.219.
